Measurements: patent publication US20220389113A1, “BINDING PROTEINS TO CUB DOMAIN-CONTAINING PROTEIN (CDCP1)” (COMMONWEALTH SCIENTIFIC AND INDUSTRIAL RESEARCH ORGANISATION, priority 2019, published 2022)

Key:
[1] = tested on: p-CDCP1-Y734 in HEY cells; test: Western blot of CDCP1-Y734 and Src-Y416 phosphorylation in HEY cells; format: cell-based, human; conditions: 5 μg/ml
Description: Cells were biotinylated (4° C., 1 h) with cell-impermeant EZ-link NHS-SS Biotin (1.22 mg/ml; Thermo) then PBS washed and lysed in buffer containing 20 mM HEPES, 150 mM NaCl, 1 mM EDTA, 1% Triton X-100, 1×Complete protease inhibitor cocktail (PIC) and phosphatase inhibitors (2 mM Na3VO4, 10 mM NaF). After centrifugation the supernatant was incubated (15 minutes, 4° C.) with ImmunoPure immobilized streptavidin beads (Thermo). After pelleting, the supernatant containing intracellular proteins was transferred to a separate tube, and the beads washed in lysis buffer containing PIC and phosphatase inhibitors. Lysates and proteins separated by cell surface biotinylation (40 μg/lane) were examined by Western blot analysis as described (He Y, et al., (2016) Oncogene. 35(4):468-78).
Since Src tyrosine phosphorylation is important in CDCP1-mediated signal transduction (Casar B, et al., (2012) Oncogene. 31(35):3924-38), the inventors next examined this in antibody induced processing of CDCP1. […] Live-cell images of the four cell lines were analysed to determine the distance moved (track length) by individual CDCP1^GFP positive puncta during mAb-induced internalization (FIG. 5C, left). […]

[2] = tested on: PANC-1 cells; test: Survival assay with cytotoxin-conjugated antibodies, PANC-1; format: cell-based, human; conditions: PANC-1, 1 μg/ml, 12 h treatment then 72 h growth
Description: (§1) The relative number of viable cells was then measured by adding the CellTiter AQueous One Solution Reagent to each well and measuring absorbance at 490 nm as described above. […] Cells were imaged by wide-field fluorescence microscopy and the total area of confluence for each cell type was quantified by image analysis using Image J software.

[3] = tested on: TKCC02 cells; test: Survival assay with cytotoxin-conjugated antibodies, TKCC02; format: cell-based, human; conditions: TKCC02, 1 μg/ml, 12 h treatment then 72 h growth
Description: as §1

[4] = tested on: subcutaneous TKCC05 cells xenografts; test: TKCC05 subcutaneous xenograft, MMAE-conjugated antibodies; format: in vivo, mouse; conditions: 5 mg/kg i.v. on day 27 and 41, in comparison with the other treatments
Description: Mouse experiments were approved by the University of Queensland Animal Ethics Committee. PDAC cells (2.5×10^6) were injected subcutaneously into the flanks of NOD.Cg-Prkdcscid Il2rgtm1Wjl/SzJ (NSG) mice (6-8 weeks; Jackson Laboratory, Bar Harbor, Me.). For assays assessing the impact of antibody 10D7 on xenograft growth, two weeks after PDAC cell inoculations, mice (n=6/group) were randomized and treated i.v. every four days with PBS, 10D7 (5 mg/kg) or IgG (5 mg/kg) until the end of the assay. For assays assessing whether 10D7 improves the efficacy of gemcitabine chemotherapy, four weeks after PDAC cell inoculations, mice were randomized and treated i.v. every four days with PBS (n=12), 10D7 (n=12, 5 mg/kg) or IgG (n=12, 5 mg/kg). Half of the mice in each of the three groups also received gemcitabine i.p. treatments (125 mg/kg/week). At the end of the assay tumours were harvested, weighed and processed for assessment of histology and CDCP1 expression by immunohistochemistry or western blot analysis. […] Tumour burden was monitored by calliper measurement and tumour volume calculated as previously described (Feldman J P, Goldwasser R, Mark S, Schwartz J (2009) Journal of Applied Quantitative Methods 4(4):455-462). […]
Finally, the inventors evaluated whether the PDAC targeting ability of antibody 10D7 can be harnessed to effectively deliver the cytotoxin MMAE to PDAC in vivo. […]

B1: 10D7-MMAE (conjugate)
VH: EVQLQQFGAELVKPGASVKISCKASGYSFSDFNIEWLKQSHGKSLEWIGDINPNYDSTNYNQKFKGRATLTVDKSSSTAYMEVRSLTSEDTAVYYCARLGYGYAMDYWGQGTSVTVSS
VL: NIVMTQSPQSMSMSVGERVTLSCKASENVGAYVSWFQQKPDQSPKLLILAASNRYTGVPARFIGSGSATDFTLTISSVQAEDLADYHCGQSYTYPYTFGGGTKLEIKRADAAPTVS
Q: With B1 as the molecule, how does the “time to phosphorylation of CDCP1-Y734 and Src-Y416” value [1] read?
A: Its value is no more than 1 h.

Q: And the survival of cells [2]?
A: The survival of cells was “about 20%”.

Q: What about the survival of cells [3] of the same molecule?
A: The survival of cells was “about 25%”.

Q: What about the “survival of xenografted mice” value [4] of the same molecule?
A: The value was “significantly extended survival”.

Q: What about the tumour growth [4] of the same molecule?
A: Its tumour growth is “markedly inhibited tumour growth”.
